Laboratory results as given in patent US8198235B2, “Use of GILZ protein expressed in dendritic cells to modulate an antigen-specific immune response” (Assistance Publique-Hopitaux de Paris, priority 2004, dated 2012).

B1: IL-10: recombinant human IL-10 (rhIL-10, DNAX) (protein, UniProt P22301 19-178, looked up)
Interleukin-10: SPGQGTQSENSCTHFPGNLPNMLRDLRDAFSRVKTFFQMKDQLDNLLLKESLLEDFKGYLGCQALSEMIQFYLEEVMPQAENQDPDIKAHVNSLGENLKTLRLRLRRCHRFLPCENKSKAVEQVKNAFNKLQEKGIYKAMSEFDIFINYIEAYMTMKIRN

Tests used:
Assay type in all cases: cell-based, human
regulatory T lymphocytes = assay: Induction of regulatory T cells: sensitized CD4+ T cells added to autologous PBMCs stimulated with PPD or CMV; conditions: CD4+ T sensitized with PPD-loaded dendritic cells treated with dexamethasone and control siRNA
Text: To evaluate the induction of the regulatory T cells (Tregs), immature monocyte-derived dendritic cells treated on the fifth day of culture (D5) with a controlled siRNA or an siRNA targeting GILZ (siRNA GILZ) alone, or else with either dexamethasone (DEX) or IL-10, or not treated, and then treated with the PPD on D7, were cocultured with CD4^+ T cells, as described in example 2. The CD4^+ T cells were purified on the seventh day of DC-CD4^+ T coculture and added in increasing amounts to 10^5 autologous PBMCs stimulated with PPD (1 μg/ml, STATENS SERUM INSTITUTE) or the cytomegalovirus (CMV, 25 μg/ml, BEHRING).
The hypothesis that the GILZ-expressing dendritic cells inhibit the CD4^+ T lymphocyte response by inducing regulatory T lymphocytes during antigen presentation was verified experimentally. Dendritic cells were treated with a control or anti-GILZ siRNA, alone or with dexamethasone, and with PPD (first culture). After washing, the dendritic cells were used to stimulate autologous CD4^+ T lymphocytes. The CD4^+ T lymphocytes of this second culture (sensitized CD4^+ T lymphocytes) were purified and added in increasing amounts to autologous PBMCs stimulated either with PPD or with CMV (third culture). The CD4^+ T lymphocytes sensitized with nontreated dendritic cells or dendritic cells treated with a control siRNA have no effect on the proliferative response of the third culture. […]

GILZ gene = assay: Quantitative RT-PCR analysis of GILZ gene expression in monocyte derived dendritic cells; conditions: added on fifth day of culture; Dex 10^-7 M, IL-10 100 ng/ml, TGFβ 20 ng/ml; detected before and after CD40L
Experimental: (§1) Immature monocyte derived dendritic cells (iMDDCs) were prepared as described in Palucka et al., J. Immunol., 1998, 160, 4587-4595, apart from minor modifications. Briefly, human monocytes were isolated from the peripheral blood mononucleocell fraction by negative selection, according to the manufacturer's (DYNAL) recommendations. The monocytes (1 to 2×10^5 cells/ml) were cultured for 7 days in the presence of GM-CSF and IL-4 (100 ng/ml and 50 ng/ml, respectively, SCHERING-PLOUGH). The maturation of the dendritic cells (MDDCs) was induced in the presence of CD40L (250 ng/ml; IMMUNEX). Dexamethasone (DEX, SIGMA), recombinant human IL-10 (rhIL-10, DNAX) and TGFβ (R&D) were used at the following respective concentrations: 10^−7 M, 100 ng/ml and 20 ng/ml. For the in vivo experiments, the antigen-presenting cells (APCs) were purified using the monocyte negative selection kit according to the manufacturer's (DYNAL) recommendations.
The expression of the human GILZ gene was analyzed by real time RT-PCR according to the manufacturer's recommendations (Lightcycler™, ROCHE), using the pair of primers described in Berrebi et al. BLOOD, 2003, 101, 729-738 and the human β-actin gene as internal control.

CCL3, CCL5 and CXCL8 = assay: Chemokine ELISA in dendritic cell culture supernatant after CD40L; conditions: dendritic cells treated before addition of CD40L
Experimental: as §1
The production of chemokines in the culture supernatant of the dendritic cells was analyzed using ELISA kits (R&D SYSTEMS) according to the manufacturer's instructions.

[1] = tested on: monocyte derived dendritic cells; assay: Dendritic cell phenotype by flow cytometry (CD80, CD83, CD86, B7-H1); conditions: treated D5, CD40L D7, phenotype D9
Experimental: as §1
The dendritic cell phenotype was analyzed by four-color flow cytometry, using the following monoclonal antibodies: phycoerythrin-coupled anti-CD83 (CD83-PE, COULTER); phycoerythrin-coupled anti-CD80 (CD80-PE, BD BIOSCIENCES); anti-B7-H1 (CLINISCIENCES) and phycoerythrin-coupled anti-CD86 (CD86-PE, BD PHARMINGEN). The anti-B7-H1 antibody is detected using a phycoerythrin-coupled secondary antibody (BD PHARMINGEN). […]

Row | Molecule | anti-CMV response of the third culture (regulatory T lymphocytes) | expression of GILZ (RT-PCR) (GILZ gene) | CD40L-induced production of the chemokines CCL3, CCL5 and CXCL8 (CCL3, CCL5 and CXCL8) | expression of B7-H1 [1] | expression of CD80, CD83 and CD86 [1]
1 | C[C@@H]1C[C@H]2[C@@H]3CCC4=CC(=O)C=C[C@]4(C)[C@@]3(F)[C@@H](O)C[C@]2(C)[C@@]1(O)C(=O)CO [dexamethasone] | no effect | – | – | – | –
2 | TGFβ | – | stimulates the expression of GILZ | – | – | –
3 | B1 | – | stimulates the expression of GILZ | partially inhibited | stimulate | inhibit
